# Measurements: IntAct's records for PubMed 30126976
# Legend:
# scrib_human SCRIB [1] = target: scrib_human SCRIB (UniProt Q14160)
# dlg1_human DLG1 = dlg1_human DLG1 (UniProt Q12959)
# scrib_human SCRIB [2] = target: scrib_human SCRIB (UniProt Q14160); remark: listed apart in the source
# ks6a2_human RPS6KA2 [3] = target: ks6a2_human RPS6KA2 (UniProt Q15349)
# crcm_human MCC [4] = target: crcm_human MCC (UniProt P23508)
# crcm_human MCC [5] = target: crcm_human MCC (UniProt P23508); remark: listed apart in the source
# ks6a2_human RPS6KA2 [6] = target: ks6a2_human RPS6KA2 (UniProt Q15349); remark: listed apart in the source
# scrib_human SCRIB [7] = target: scrib_human SCRIB (UniProt Q14160); remark: listed apart in the source
# crcm_human MCC, sequence (P23508 whole entry): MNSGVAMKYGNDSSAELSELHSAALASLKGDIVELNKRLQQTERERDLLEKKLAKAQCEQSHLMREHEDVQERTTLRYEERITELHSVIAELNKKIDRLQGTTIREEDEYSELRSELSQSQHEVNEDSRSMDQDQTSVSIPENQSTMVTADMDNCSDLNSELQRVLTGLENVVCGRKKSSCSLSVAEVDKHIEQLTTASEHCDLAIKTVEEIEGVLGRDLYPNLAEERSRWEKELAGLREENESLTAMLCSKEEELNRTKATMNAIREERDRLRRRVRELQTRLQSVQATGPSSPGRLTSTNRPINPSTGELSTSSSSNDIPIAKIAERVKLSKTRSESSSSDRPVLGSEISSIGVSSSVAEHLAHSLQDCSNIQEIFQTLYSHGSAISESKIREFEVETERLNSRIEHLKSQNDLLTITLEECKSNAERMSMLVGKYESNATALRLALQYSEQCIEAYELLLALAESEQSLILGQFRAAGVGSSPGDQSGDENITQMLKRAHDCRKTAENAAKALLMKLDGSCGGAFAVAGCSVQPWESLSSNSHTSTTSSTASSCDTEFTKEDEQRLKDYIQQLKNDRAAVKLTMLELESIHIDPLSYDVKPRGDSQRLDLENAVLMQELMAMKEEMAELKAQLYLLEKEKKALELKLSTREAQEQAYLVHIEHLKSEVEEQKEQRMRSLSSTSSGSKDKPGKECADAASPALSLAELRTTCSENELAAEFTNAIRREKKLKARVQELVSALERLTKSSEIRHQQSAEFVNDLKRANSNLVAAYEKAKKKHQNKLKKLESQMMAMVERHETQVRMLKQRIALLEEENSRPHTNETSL
# ks6a2_human RPS6KA2, sequence (Q15349 whole entry): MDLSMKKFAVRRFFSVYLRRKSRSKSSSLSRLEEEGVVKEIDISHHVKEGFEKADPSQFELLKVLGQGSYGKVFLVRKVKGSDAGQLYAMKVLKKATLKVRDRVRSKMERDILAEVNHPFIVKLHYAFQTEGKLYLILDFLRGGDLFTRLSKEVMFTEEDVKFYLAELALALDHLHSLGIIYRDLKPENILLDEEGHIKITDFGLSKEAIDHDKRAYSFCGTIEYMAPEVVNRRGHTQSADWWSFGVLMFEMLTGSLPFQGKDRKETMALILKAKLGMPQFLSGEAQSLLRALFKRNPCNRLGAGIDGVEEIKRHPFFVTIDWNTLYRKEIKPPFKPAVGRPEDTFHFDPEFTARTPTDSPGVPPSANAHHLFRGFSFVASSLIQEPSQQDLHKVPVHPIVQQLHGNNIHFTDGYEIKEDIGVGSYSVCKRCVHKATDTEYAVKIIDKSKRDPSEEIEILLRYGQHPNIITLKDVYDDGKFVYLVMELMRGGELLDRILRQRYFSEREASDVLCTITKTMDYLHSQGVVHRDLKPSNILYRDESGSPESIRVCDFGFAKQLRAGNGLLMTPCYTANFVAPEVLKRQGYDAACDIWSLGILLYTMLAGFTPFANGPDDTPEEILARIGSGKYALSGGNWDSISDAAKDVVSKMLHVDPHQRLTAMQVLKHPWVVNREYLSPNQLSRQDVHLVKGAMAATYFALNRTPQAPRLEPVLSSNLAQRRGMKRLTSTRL
# scrib_human SCRIB, sequence (Q14160 whole entry): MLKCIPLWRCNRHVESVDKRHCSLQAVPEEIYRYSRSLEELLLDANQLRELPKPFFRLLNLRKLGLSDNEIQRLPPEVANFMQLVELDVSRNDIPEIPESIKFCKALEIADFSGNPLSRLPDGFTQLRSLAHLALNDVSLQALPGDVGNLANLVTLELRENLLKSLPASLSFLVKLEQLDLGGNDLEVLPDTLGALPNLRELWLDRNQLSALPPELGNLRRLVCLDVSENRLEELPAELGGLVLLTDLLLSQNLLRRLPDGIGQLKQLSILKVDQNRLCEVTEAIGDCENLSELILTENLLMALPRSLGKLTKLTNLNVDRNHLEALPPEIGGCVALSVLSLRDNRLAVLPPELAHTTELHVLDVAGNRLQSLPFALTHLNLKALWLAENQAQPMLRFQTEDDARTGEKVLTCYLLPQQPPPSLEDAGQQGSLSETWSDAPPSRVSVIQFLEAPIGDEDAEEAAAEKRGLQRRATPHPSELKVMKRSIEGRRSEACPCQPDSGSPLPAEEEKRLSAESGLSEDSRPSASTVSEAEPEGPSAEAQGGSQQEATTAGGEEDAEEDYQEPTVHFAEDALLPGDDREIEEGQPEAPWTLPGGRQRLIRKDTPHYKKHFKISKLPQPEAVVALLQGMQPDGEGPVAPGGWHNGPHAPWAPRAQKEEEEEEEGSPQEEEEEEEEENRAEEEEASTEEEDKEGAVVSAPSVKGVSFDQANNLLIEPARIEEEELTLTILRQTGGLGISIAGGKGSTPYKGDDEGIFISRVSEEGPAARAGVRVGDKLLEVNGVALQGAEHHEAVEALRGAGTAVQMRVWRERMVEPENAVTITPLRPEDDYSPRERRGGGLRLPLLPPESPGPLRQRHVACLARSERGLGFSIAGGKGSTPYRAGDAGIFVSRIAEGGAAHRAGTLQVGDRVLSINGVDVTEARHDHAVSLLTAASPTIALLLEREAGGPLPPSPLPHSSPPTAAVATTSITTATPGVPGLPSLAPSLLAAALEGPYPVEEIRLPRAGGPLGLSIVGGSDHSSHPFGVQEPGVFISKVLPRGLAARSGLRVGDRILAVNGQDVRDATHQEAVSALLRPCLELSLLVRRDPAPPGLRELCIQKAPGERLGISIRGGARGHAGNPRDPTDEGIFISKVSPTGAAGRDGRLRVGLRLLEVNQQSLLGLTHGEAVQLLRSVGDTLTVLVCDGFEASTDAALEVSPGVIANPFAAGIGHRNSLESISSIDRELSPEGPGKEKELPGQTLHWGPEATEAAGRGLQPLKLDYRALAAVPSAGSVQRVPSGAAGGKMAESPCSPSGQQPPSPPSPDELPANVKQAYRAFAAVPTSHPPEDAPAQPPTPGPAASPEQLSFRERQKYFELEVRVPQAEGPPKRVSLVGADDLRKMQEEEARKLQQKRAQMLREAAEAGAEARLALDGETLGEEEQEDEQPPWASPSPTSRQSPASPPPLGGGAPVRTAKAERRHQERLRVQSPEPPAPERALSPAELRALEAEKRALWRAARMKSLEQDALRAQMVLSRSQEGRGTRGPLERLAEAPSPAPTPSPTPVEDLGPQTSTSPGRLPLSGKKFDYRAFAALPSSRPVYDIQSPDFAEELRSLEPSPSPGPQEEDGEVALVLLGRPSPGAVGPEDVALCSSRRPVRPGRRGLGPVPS
# dlg1_human DLG1, sequence (Q12959 whole entry, looked up): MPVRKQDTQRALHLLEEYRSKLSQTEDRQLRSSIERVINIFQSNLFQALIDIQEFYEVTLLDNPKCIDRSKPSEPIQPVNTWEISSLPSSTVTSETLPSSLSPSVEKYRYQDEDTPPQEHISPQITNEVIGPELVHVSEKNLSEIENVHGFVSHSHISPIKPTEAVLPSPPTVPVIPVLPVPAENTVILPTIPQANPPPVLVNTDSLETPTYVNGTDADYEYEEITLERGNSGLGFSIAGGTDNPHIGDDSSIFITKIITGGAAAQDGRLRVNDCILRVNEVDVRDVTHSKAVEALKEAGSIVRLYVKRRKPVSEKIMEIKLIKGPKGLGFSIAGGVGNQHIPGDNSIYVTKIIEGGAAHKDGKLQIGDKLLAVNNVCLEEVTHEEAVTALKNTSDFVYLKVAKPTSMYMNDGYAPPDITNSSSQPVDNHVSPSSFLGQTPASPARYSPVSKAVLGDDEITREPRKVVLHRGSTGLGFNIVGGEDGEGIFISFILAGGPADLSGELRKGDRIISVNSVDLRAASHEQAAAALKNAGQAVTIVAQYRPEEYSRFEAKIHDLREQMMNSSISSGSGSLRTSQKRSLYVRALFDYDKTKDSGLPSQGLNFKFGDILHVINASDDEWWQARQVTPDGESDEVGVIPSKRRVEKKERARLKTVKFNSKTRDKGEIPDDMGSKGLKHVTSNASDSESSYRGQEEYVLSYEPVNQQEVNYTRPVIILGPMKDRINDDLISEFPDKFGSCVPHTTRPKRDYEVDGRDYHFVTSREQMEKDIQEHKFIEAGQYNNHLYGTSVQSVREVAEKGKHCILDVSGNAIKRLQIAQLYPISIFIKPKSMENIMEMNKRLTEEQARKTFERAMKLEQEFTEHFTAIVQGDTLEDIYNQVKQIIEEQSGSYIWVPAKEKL
# Wilms tumor protein 1-interacting protein (Homo sapiens), A6NIX2 S422E, sequence (A6NIX2 whole entry S422E): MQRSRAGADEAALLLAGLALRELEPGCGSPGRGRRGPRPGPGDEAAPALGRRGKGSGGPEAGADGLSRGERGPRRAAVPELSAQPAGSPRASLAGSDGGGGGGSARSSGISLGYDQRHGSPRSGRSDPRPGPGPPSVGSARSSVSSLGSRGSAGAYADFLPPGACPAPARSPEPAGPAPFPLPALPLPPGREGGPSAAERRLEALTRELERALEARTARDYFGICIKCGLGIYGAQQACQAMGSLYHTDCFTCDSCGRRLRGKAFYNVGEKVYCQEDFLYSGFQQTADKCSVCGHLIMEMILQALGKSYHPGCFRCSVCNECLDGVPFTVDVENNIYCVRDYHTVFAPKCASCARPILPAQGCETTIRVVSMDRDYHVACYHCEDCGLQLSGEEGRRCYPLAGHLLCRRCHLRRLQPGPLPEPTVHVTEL
substance,measurement,setting,value
"Asparagine synthetase domain-containing protein 1 (Homo sapiens), Q9NWL6 T641E",effect of a mutation on the interaction,scrib_human SCRIB [1],disrupting interaction strength
"Protein TANC1 (Homo sapiens), Q9C0D5 S1855E",effect of a mutation on the interaction,dlg1_human DLG1,decreasing interaction strength
same,effect of a mutation on the interaction,scrib_human SCRIB [2],decreasing interaction strength
"Protein scribble homolog (Homo sapiens), Q14160 A743R",effect of a mutation on the interaction,ks6a2_human RPS6KA2 [3],increasing interaction strength
"Protein scribble homolog (Homo sapiens), Q14160 A743R;R762A",effect of a mutation on the interaction,ks6a2_human RPS6KA2 [3],decreasing interaction strength
same,effect of a mutation on the interaction,crcm_human MCC [4],decreasing interaction strength
same,effect of a mutation on the interaction,crcm_human MCC [5],with no effect
"Protein scribble homolog (Homo sapiens), Q14160 K746A",effect of a mutation on the interaction,ks6a2_human RPS6KA2 [3],decreasing interaction strength
same,effect of a mutation on the interaction,ks6a2_human RPS6KA2 [6],increasing interaction strength
"Protein scribble homolog (Homo sapiens), Q14160 R762A",effect of a mutation on the interaction,ks6a2_human RPS6KA2 [3],decreasing interaction strength
same,effect of a mutation on the interaction,crcm_human MCC [4],decreasing interaction strength
same,effect of a mutation on the interaction,ks6a2_human RPS6KA2 [6],increasing interaction strength
"Protein scribble homolog (Homo sapiens), Q14160 R801A",effect of a mutation on the interaction,ks6a2_human RPS6KA2 [3],decreasing interaction strength
"Wilms tumor protein 1-interacting protein (Homo sapiens), A6NIX2 S422E",effect of a mutation on the interaction,scrib_human SCRIB [7],with no effect
